Measured values reported in patent US12415833B2, “Method for activating helper T cell” (International Institute of Cancer Immunology, Inc., priority 2010, dated 2025).
No end group written: not given here.

Experiments:
Assay in all cases: Folding test of HLA class II monomer protein with peptide using HPLC
Assay type in all cases: binding
Conditions in all cases: 50-fold molar peptide, 37° C. overnight, compared with control (solvent only), folding criterion not less than 0.1 minute
[1] = target: HLA class II monomer protein DRB1*1502 (Homo sapiens, UniProt P01903+P01911, V115G)
Sequence of HLA class II monomer protein DRB1*1502 (P01903 26-254, other chains not shown): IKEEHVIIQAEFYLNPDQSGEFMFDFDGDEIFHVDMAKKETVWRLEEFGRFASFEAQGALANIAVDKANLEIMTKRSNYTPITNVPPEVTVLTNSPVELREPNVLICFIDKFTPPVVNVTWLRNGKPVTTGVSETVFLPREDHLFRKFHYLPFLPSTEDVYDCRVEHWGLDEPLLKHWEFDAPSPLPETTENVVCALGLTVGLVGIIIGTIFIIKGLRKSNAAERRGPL
Method: (§1) Next, in order to evaluate a binding ability of WT1-332 with MHC class II molecules, a folding test of 7 types of HLA class II monomer proteins (DRB1*1501, 0101, 0405, 0803, 0901, 1502, or DRB4*0101) with WT1-332 was carried out using HPLC. Briefly, a folding reaction solution was prepared by mixing an HLA class II monomer protein, a peptide [a peptide binding to each protein (positive control), a peptide not binding to each protein (negative control), and WT1-332], and a folding buffer. After reacting the solution at 37° C., the retention time was analyzed using HPLC. The folding with WT1-332 was evaluated by utilizing a shift of the retention time due to the binding of an HLA class II monomer protein with a peptide.
(§2) HLA class II monomer proteins which had been freeze-preserved at −80° C. were thawed on ice. The HLA class II monomer proteins thawed were adjusted using a dilution buffer so that they were contained in an amount of 0.05 mg (1×10−^9 mol) in 83 μL.
(§3) About 1 mg of each peptide was weighed by an electronic balance, transferred to a glass vial, and dissolved in DMSO to give a concentration of 20 mg/mL.
(§4) The amount of a peptide which is a 50-fold molar amount relative to an HLA class II monomer protein was calculated using the following calculation formula. Amount of peptide required: 1×10^−9 mol×50=5×10^−8 mol (amount of peptide required) […]×(Molecular weight of peptide)×1,000=(amount of peptide required)(mg) (Amount of peptide required)/[purity of peptide/100]=(amount of peptide added)(mg) [(Amount of peptide added)/20 mg/mL]×1,000=(amount of peptide solution added)(μL) Calculation of Amount of Folding Buffer Added
(§5) As a folding buffer, a 10% amount of a mixed solution of an HLA class II monomer protein and a peptide was added. The amount of the folding buffer added was calculated using the following calculation equation. [83 μL (Amount of HLA class II monomer protein)+(amount of peptide solution in 50-fold molar amount)]×0.1=amount of folding buffer added Analysis of Folding Using HPLC
(§6) To a glass vial charged with an HLA class II monomer protein, a peptide solution and a folding buffer were added in a calculated amount, and the mixture was allowed to stand at 37° C. overnight. HPLC (Waters 2695 Separation Module) was started, and a Seperdex 200 column was equilibrated with an equilibrating buffer. To all samples, 300 μL of the equilibrate buffer was added and well mixed, and a 100 μL portion of the mixture was used as a sample injection volume to calculate the retention time. Analysis time was 50 minutes. The criterion for the folding of an HLA class II monomer protein with a peptide is a shift of the retention time of not less than 0.1 minute as compared with a control (solvent only).

[2] = target: HLA class II monomer protein DRB1*0101 (Homo sapiens, UniProt P01903+P01911, A100R/D57E/F55L/F60I/F76Y/I96L/L162R/M171V/P40L/Q125E/R42F/V115G/Y59C)
Method: as §1, §2, §3, §4, §5, §6

[3] = target: HLA class II monomer protein DRB4*0101 (Homo sapiens, UniProt P01903+P13762, G164S)
Method: as §1, §2, §3, §4, §5, §6

[4] = target: HLA class II monomer protein DRB1*1501 (Homo sapiens, UniProt P01903+P01911)
Method: as §1, §2, §3, §4, §5, §6

[5] = target: HLA class II monomer protein DRB1*0803 (Homo sapiens, UniProt P01903+P01911, A100R/A103L/A169T/D86S/F76Y/H45Y/K41T/L162R/M171V/P40S/Q125H/Q178H/Q39Y/Q99D/R218S/R42G/S66Y/V115G/W38E)
Method: as §1, §2, §3, §4, §5, §6

[6] = target: HLA class II monomer protein DRB1*0901 (Homo sapiens, UniProt P01903+P01911, A100R/A103E/D57H/D86V/F55Y/F60I/F76Y/I96F/K127E/L162R/M171V/P40D/Q125H/Q99R/R33Q/R42F/S133A/S66N/T210M/V115G/W38K/Y107V/Y59G/Y89S)
Method: as §1, §2, §3, §4, §5, §6

[7] = target: HLA class II monomer protein DRB1*0405 (Homo sapiens, UniProt P01903+P01911, A100R/A169T/D86S/F76Y/I96L/K127E/L162R/M171V/N62H/P40V/Q125Y/R42H/S133A/S149N/S66Y/V115G/V209L/W38E)
Method: as §1, §2, §3, §4, §5, §6

Measured: degree of shift of the retention time

KRYFKLSHLQMHSRKH [WT1-332]
not less than 0.1 minute: all assays above
